Assay [1] deals with HLA-A*02:01. Kind of assay: IEDB peptide-MHC binding, purified MHC/competitive/fluorescence; ≥ and ≤ were set here for values at or beyond the usual limits of such assays.
Assay [2] has as its target HLA-A*24:02. Described as above.
Assay [3] concerns the target HLA-A*30:01. In words: IEDB peptide-MHC binding, purified MHC/competitive/radioactivity; filed as Kd, often an IC50 or EC50 that approximates it; ≥ and ≤ were set here for values at or beyond the usual limits of such assays.
The target in assay [4] is HLA-A*69:01. Kind of assay: IEDB peptide-MHC binding, purified MHC/direct/fluorescence; filed as Kd, often an IC50 or EC50 that approximates it; ≥ and ≤ were set here for values at or beyond the usual limits of such assays.
Assay [5] deals with HLA-A*02:01. The description is as above.
The target of assay [6] is HLA-B*53:01. Kind of assay: IEDB peptide-MHC binding, purified MHC/competitive/radioactivity; filed as Kd, often an IC50 or EC50 that approximates it; ≥ and ≤ were set here for values at or beyond the usual limits of such assays. To be noted: source organism: Dengue virus 4 Philippines/H241/1956.
Assay [7] addresses HLA-A*32:01. The assay is described as above.
The target in assay [8] is HLA-A*11:01. Kind of assay: IEDB peptide-MHC binding, purified MHC/direct/fluorescence; filed as Kd, often an IC50 or EC50 that approximates it; ≥ and ≤ were set here for values at or beyond the usual limits of such assays. To be noted: source organism: Homo sapiens.
Assay [9] concerns the target HLA-B*15:01. Described as above. To be noted: source organism: Homo sapiens.
Assay [10] addresses HLA-B*44:03. Kind of assay: IEDB peptide-MHC binding, purified MHC/competitive/radioactivity; filed as Kd, often an IC50 or EC50 that approximates it; ≥ and ≤ were set here for values at or beyond the usual limits of such assays.
The target in assay [11] is HLA-B*40:01. The assay is described as above.
Assay [12] concerns the target HLA-B*44:02. The description is as above.
In assay [13] the target is HLA-A*02:01. In words: IEDB peptide-MHC binding, purified MHC/competitive/fluorescence; filed as Kd, often an IC50 or EC50 that approximates it; ≥ and ≤ were set here for values at or beyond the usual limits of such assays.
Assay [14] has as its target HLA-A*02:06. In words: IEDB peptide-MHC binding, purified MHC/competitive/radioactivity; filed as Kd, often an IC50 or EC50 that approximates it; ≥ and ≤ were set here for values at or beyond the usual limits of such assays. To be noted: source organism: Dengue virus 1 Brazil/97-11/1997.
Assay [15] addresses HLA-B*07:02. Kind of assay: IEDB peptide-MHC binding, purified MHC/direct/fluorescence; filed as Kd, often an IC50 or EC50 that approximates it; ≥ and ≤ were set here for values at or beyond the usual limits of such assays.
In assay [16] the target is HLA-A*01:01. The description is as above. To be noted: source organism: Yersinia pestis.
The mark [17] stands for this setting: source organism: Vaccinia virus WR.
Where [18] appears, read: source organism: Dengue virus 3 Martinique/1243/1999.
[19] abbreviates: source organism: Marburg virus - Musoke, Kenya, 1980.
Where [20] appears, read: source organism: Zaire ebolavirus.
Setting [21] is: source organism: Dengue virus 1 Brazil/97-11/1997.
[22] abbreviates: source organism: Dengue virus 4 Philippines/H241/1956.
The mark [23] stands for this setting: source organism: Dengue virus 2 Jamaica/1409/1983.
Where [24] appears, read: source organism: Entamoeba histolytica HM-1:IMSS.
Where [25] appears, read: source organism: Mycobacterium tuberculosis.
Where [26] appears, read: source organism: Vaccinia virus.
Setting [27] is: source organism: Clostridium botulinum.

The values below come from the Immune Epitope Database (IEDB).

Usually IC50 stands for the concentration at which inhibition is half-maximal. By Kd is commonly meant the concentration at which binding is half-saturated.

Take GILPWTKIS: the IC50 was 17200 nM in [1] (setting [17]) and ≥ 133000 nM in assay [2] (setting [17]).
For AVSRGSAKLQ, the Kd in assay [3] (setting [18]) was found to be 1290 nM.
Consider RFRFRSVYG, for which the Kd in assay [3] (setting [17]) is 0.357 nM.
Turning to MLAKYDHLV, the results for the Kd in assay [4] (setting [19]) and in assay [5] (setting [19]) were 104 nM and 27 nM, respectively.
For YPKTKLTDW, the Kd in assay [6] was found to be 1440 nM.
Take RTSSDPGTN: the IC50 in [2] (setting [20]) is ≥ 98100 nM.
As for KTMAPVHTY, the Kd in [7] (setting [17]) came out at 4.55 nM.
Consider VTEIGRVPSH, for which the Kd in [3] (setting [18]) was ≥ 22900 nM.
EVDPIGHLY: the Kd was found to be 4390 nM in assay [4] (source organism: Homo sapiens), 3360 nM in assay [8] and 3710 nM in [9].
For WFNYLFGGF, the IC50 in [1] (source organism: Variola virus) is ≥ 104000 nM; in assay [2] (source organism: Variola virus), 484 nM.
On to GEIGAIALD, for which, in assay [10] (setting [18]), the Kd came to 907 nM.
On to MTTEDMLKVW, for which the Kd in assay [6] amounted to 1150 nM.
Consider TEATQLATL, for which the Kd in assay [11] (setting [18]) is 8.32 nM.
Consider LENIMWKQI, for which the Kd worked out at 115 nM in [12] (setting [21]) and 204 nM in assay [10] (setting [21]).
Consider HIYFVSLLL, for which the Kd in assay [7] (setting [17]) worked out at 15.3 nM.
With KTTWLPVLL, in assay [7] (setting [21]), the dissociation constant Kd is 148 nM.
Take GVSGGAWVDL: the dissociation constant (Kd) in assay [7] (setting [22]) is ≥ 69900 nM.
Consider AEPPFGDSYI, for which the Kd in assay [12] (setting [23]) came out at 432 nM; in assay [10] (setting [23]) it was 79.3 nM; in [11] (setting [23]), 1990 nM.
HLGNVKYLV displayed a Kd in assay [13] (source organism: Plasmodium falciparum) of 6.5 nM.
KQWFLDLPL: the dissociation constant (Kd) came to 7.51 nM in assay [14] and 13.3 nM in assay [7] (setting [21]).
Take KLYDSVYLT: the Kd in [4] (setting [24]) is ≥ 20000 nM; in [5] (setting [24]), 7.6 nM.
With ITDVIVQSI, the Kd in [7] (setting [17]) was 256 nM.
Turning to SEFQIYKKSG, the Kd in [10] (setting [23]) is 3730 nM; in [11] (setting [23]) it was 407 nM.
Consider FLWWNAAPA, for which the Kd in assay [4] (setting [25]) was ≤ 1 nM.
Consider FEEYKRSGIL, for which the Kd in [11] (setting [22]) was 18.7 nM.
Sequence MIRAQAGSL registered a Kd in assay [15] (setting [25]) of 33.5 nM.
For MTLGMCCII, the Kd in [7] (setting [23]) was found to be 2590 nM.
On to SVNSFTLLI, for which the Kd in assay [7] (source organism: Vaccinia virus Copenhagen) amounted to 2.63 nM.
For NIGNTKSNI, the IC50 in [1] (setting [26]) is ≥ 662000 nM; in assay [2] (setting [26]), ≥ 176000 nM.
Regarding ITFLRVLSI, in assay [7] (setting [22]), the Kd was found to be 100 nM.
The sequence HYAYMVPGW showed an IC50 in [2] (source organism: West Nile virus) of 220 nM.
Consider FLWSSIIFK, for which the Kd in assay [4] (setting [27]) was 7000 nM; in assay [5] (setting [27]) it was 4430 nM.
For IGEWAFWEN, the IC50 in assay [2] (source organism: Sudan ebolavirus) turned out to be 58800 nM.
As to VDNLTYVQL, in [2] (setting [20]), the IC50 is ≥ 117000 nM.
Same read-out and setting: then DFQESADSF, with 55000 nM.
As for AARISSCLK, the dissociation constant Kd in [16] was ≥ 20000 nM.
Consider KEENLVNSL, for which, in [11] (setting [23]), the Kd was 2.17 nM.
On to RETACLGKAY, for which the Kd in [10] (setting [18]) came to 17.9 nM.
Turning to RQVEKVETW, the Kd in assay [7] (setting [18]) amounted to 79.6 nM.
The sequence LLWKTWYPC returned a dissociation constant (Kd) in assay [15] (source organism: Homo sapiens) of 14600 nM.
As to MTLFKSILF, the Kd in assay [7] (setting [17]) came out at 11.3 nM.
In assay [13] (source organism: Escherichia coli), KVHADDIPV returned a dissociation constant Kd of 15.3 nM.
As for QYSDRRWCFD, the Kd in [7] (setting [21]) was ≥ 53500 nM.
IHAKHEWMTT: the Kd in assay [7] (setting [23]) is 5230 nM.
With MTVASRQPI, the Kd in assay [7] (setting [17]) was 2860 nM.
KAQREIFSA: the IC50 was determined as 2010 nM in [1] (source organism: Variola virus) and 165 nM in [2] (source organism: Variola virus).
